Reference: patent publication US20120121583A1 (Genentech, published 2012)
Substitutions are numbered along the chain they refer to.

T1: human Flag-tagged soluble TWEAK (amino acids 106-249) (human, UniProt O43508 106-249)
T1 construct: N-terminal placement here is only an order of listing; not shown: Flag tag
T1 sequence: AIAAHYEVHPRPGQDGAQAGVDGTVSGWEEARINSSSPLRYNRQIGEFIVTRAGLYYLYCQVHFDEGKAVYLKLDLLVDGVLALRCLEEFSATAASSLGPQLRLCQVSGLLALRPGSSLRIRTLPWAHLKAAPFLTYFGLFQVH

T2: Biotinylated TWEAK (Homo sapiens (Human), UniProt O43508 99-249, Biotinylated for capture on the streptavidin sensor; the site or sites of biotinylation are not stated. The active form is a soluble homotrimer; one protomer is given.)
T2 sequence: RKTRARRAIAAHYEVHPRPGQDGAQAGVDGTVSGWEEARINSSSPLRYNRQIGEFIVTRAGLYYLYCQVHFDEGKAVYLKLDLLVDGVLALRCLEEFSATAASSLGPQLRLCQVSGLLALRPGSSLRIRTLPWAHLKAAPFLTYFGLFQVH

T3: Biotinylated human soluble TWEAK (amino acids 99-249 of SEQ ID NO: 60) (human, UniProt O43508 99-249, biotinylated (sites not given))
T3 construct: Immobilised on the streptavidin sensor in the Biacore half-life assay; also called Human TWEAK; soluble human TWEAK
T3 sequence: T2 sequence

T4: Human recombinant soluble TWEAK (human, UniProt O43508 99-249)
T4 sequence: T2 sequence

B1: TW-305 (antibody, V domains shown)
VH: QEQLVESGGGLVQPGGSLTLSCKASGFDFSTYYMSWVRQAPGKGLEWIGTVYVRQGTTYYASWLNGRFTISSDNAQNTVDLKMNSLTAADTATYFCAKGGYNYDDAFVIWGPGTLVTVSF
VL: AIEMTQTPFSVSAAVGGTVTINCQASQNIYSNLAWYQQKPGQPPKLLMYTASYLASGVPSRFKGSGSRTEYTLTISGVQCADAATYYCQTAYYNSRPDTVAFGGGTEVVVK
notes: also called Antibody 305; rabbit antibody 305
B2: TW-304 (antibody, V domains shown)
VH: QSLEESGGDLVKPGASLTLTCKASGFSFSSTYYMCWVRQAPGKGLEWIGCIYVGSSGAPYYASWAKGRFTISKTSSTTVALQMTSLTPADTATYVCTRSVHFGDLWGPGTLVTVSS
VL: DVVMTQTPSPVSAAVGGTVTIKCQASQSIGNDLSWYQQKPGQRPKLLIYSVSTLASGVPSRFKGSGSGTEYSLTISDVQCADAATYYCQCIDYGNNYVGNTFGGGTEVVVK
notes: also called Antibody 304; rabbit antibody 304
B3: TW-304chi (antibody, human IgG1, kappa, V domains shown)
VH: B2 VH
VL: DVVMTQTPSPVSAAVGGTVTIKCQASQSIGNDLSWYQQKPGQRPKLLIYSVSTLASGVPSRFKGSGSGTEYSLTISDVQCADAATYYCQCIDYGNNYVGNTFGGGTEVVVKR
notes: also called chimeric antibody 304
B4: Antibody 27 (antibody, V domains shown)
VH: QVQLVQSGAEVKKPGSSVKVSCKASGFDFSTYYMSWVRQAPGQGLEWMGTVYVRQGTTYYASWLNGRVTITADESTSTAYMELSSLRSEDTAVYYCARGGYNYDDAFVIWGQGTLVTVSS
VL: DIQMTQSPSSVSASVGDRVTITCQASQNIYSNLAWYQQKPGKAPKLLIYTASYLASGVPSRFSGSGSGTDYTLTISSLQPEDFATYYCQTAYYNSRPDTVAFGGGTKVEIK
notes: also called humanized 305 variant 305-LC2 / 305-HC4
B5: Antibody 28 (antibody, V domains shown)
VH: EVQLLESGGGLVQPGGSLTLSCAASGFDFSTYYMSWVRQAPGKGLEWVSTVYVRQGTTYYASWLNGRFTISRDNSKNTLYLQMNSLRAEDTAVYYCAKGGYNYDDAFVIWGQGTLVTVSS
VL: B4 VL
notes: Humanized variant of antibody 305; also called humanized 305 variant 305-LC2 / 305-HC7
B6: Antibody 34 (antibody, V domains shown)
VH: B5 VH with T19R
VL: B4 VL with D1A, Q3R, V11F, V15T, S77C, P80S
notes: Humanized variant of antibody 305; also called humanized 305 variant 305-LC4 / 305-HC2
B7: Antibody 30 (antibody, V domains shown)
VH: B5 VH with T19R, R87T
VL: B4 VL with Y71F
notes: Humanized variant of antibody 305; also called humanized 305 variant 305-LC1 / 305-HC10
B8: Antibody 31 (antibody, V domains shown)
VH: B5 VH
VL: B4 VL with D1A, Q3R, V11F, V15T, S77C, P80S
notes: Humanized variant of antibody 305; also called humanized 305 variant 305-LC4 / 305-HC7
B9: Antibody 32 (antibody, V domains shown)
VH: B5 VH with T19R, Y80D
VL: B4 VL with S10T, V11L, D70E, Y71F, E81D
notes: Humanized variant of antibody 305; also called humanized 305 variant 305-LC6 / 305-HC8
B10: Antibody 33 (antibody, V domains shown)
VH: B4 VH
VL: B4 VL with D1A, Q3R, V11F, V15T, S77C, P80S
notes: Humanized variant of antibody 305; also called humanized 305 variant 305-LC4 / 305-HC4
B11: Antibody 29 (antibody, V domains shown)
VH: B5 VH with T19R, Y80D
VL: B4 VL
notes: Humanized variant of antibody 305; also called humanized 305 variant 305-LC2 / 305-HC8

biological target: T1, human Flag-tagged soluble TWEAK (amino …); assay: competition ELISA: antibody pre-incubated with human Flag-TWEAK 2.5 ng/ml, binding to coated human Fn14:Fc
Method: (§1) 96-well Maxisorp® plates (Nunc) were coated with 100 μl 1 μg/ml human Fn14:Fc (extracellular domain of human Fn14 (amino acids 1-75) fused to Fc portion of human IgG1) in PBS per well for 1.5 h at room temperature and blocked with a solution of 5% FBS in PBS for 30 minutes at room temperature under shaking. […] Wells were filled with 100 μl of anti-FLAG-HRP detection antibody, diluted 1:5000 in blocking buffer, and incubated for 1 h at room temperature. After four more wash steps, the signal was developed by addition of 100 μl 3,3,5,5-Tetramethylbenzidine (TMB) solution for approximately ten minutes. The reaction was stopped by adding 100 μl of 1 N HCl, and absorbance measured at 450 nm (reference wavelength 620 nm).

Binder | IC50
B1 | 2.5 ng/mL
B2 | 2.8 ng/mL
B3 | 2.6 ng/mL

biological target: Biotinylated murine soluble TWEAK (amino acids 81-225 of SEQ ID NO: 61) (murine) (UniProt O54907); assay: Biacore SPR, biotinylated murine soluble TWEAK on SA sensor, antibody as analyte, 37 C

Binder | t/2 diss
B4 | 19 min
B5 | 17 min
B6 | 20 min
B7 | 15 min
B8 | 19 min
B9 | 20 min
B10 | 15 min
B11 | 21 min

biological target: T2, Biotinylated TWEAK; assay: Biacore cross-blocking on immobilised biotinylated TWEAK; binding of antibody 2 after saturation with competitor antibody 1 TW-301chi (row), 100 nM each
Method: (§2) Because of the individual biochemical properties of the TWEAK protein another method had to be developed using TWEAK as ligand. Biotinylated TWEAK was immobilized on the streptavidin-coated chip surface and epitope coverage of consecutively injected antibodies (antibody 1) was measured. The aim was to detect the relative binding levels of a secondary antibody (antibody 2) in the presence of an already bound primary antibody. From these relative binding levels a quotient was calculated (Ab2/Ab1, molar ratio given in %, table 7).
(§3) 5 nM of biotinylated TWEAK was immobilized at 20 μl/min for 1 min on a streptavidin coated sensor flow cell. Primary and secondary mAbs were consecutively injected at 10 μl/min for 4 min into the system at 100 nM each until saturation of the respective TWEAK epitopes was achieved. As a reference an SA coated flow cell was used.
(§4) The system was washed with HBS-ET for 20 sec at 30 μl/min followed by two regeneration steps with 1 min at 30 μl/min 6 M GuadHCl and 100 mM HCl. […] The process was repeated by the immobilization of native biotinylated TWEAK protein (feed batch mode) on the same flow cell until the streptavidin sensor surface was completely saturated by biotinylated TWEAK.

Binder | MR % (Ab2/Ab1 molar ratio)
B3 | 6%

biological target: Mouse soluble TWEAK (mouse) (UniProt O54907); assay: competition ELISA: antibody pre-incubated with mouse soluble TWEAK, binding to coated mouse Fn14:Fc

Binder | IC50
B4 | 8.2 ng/mL
B5 | 6.5 ng/mL
B6 | 5.9 ng/mL
B7 | 7.6 ng/mL
B8 | 7.1 ng/mL
B9 | 5.4 ng/mL
B10 | 6.7 ng/mL
B11 | 5.7 ng/mL

biological target: T1, human Flag-tagged soluble TWEAK (amino …); assay: competition ELISA: antibody pre-incubated with human Flag-TWEAK, binding to coated human Fn14:Fc
Method: as §1

Binder | IC50
B4 | 2.3 ng/mL
B5 | 1.5 ng/mL
B6 | 1.9 ng/mL
B7 | 2.3 ng/mL
B8 | 1.7 ng/mL
B9 | 1.5 ng/mL
B10 | 1.7 ng/mL
B11 | 1.8 ng/mL

biological target: T2, Biotinylated TWEAK; assay: Biacore cross-blocking on immobilised biotinylated TWEAK; binding of antibody 2 after saturation with competitor antibody 1 TW-304chi (row), 100 nM each
Method: as §2, §3, §4

Binder | MR % (Ab2/Ab1 molar ratio)
B3 | 0%

biological target: T3, Biotinylated human soluble TWEAK (amino …); assay: Biacore SPR, biotinylated TWEAK on SA sensor, antibody 100 nM as analyte, 25 C; t1/2 = ln(2)/(60 x kd)
Method: (§5) A Biacore 2000 instrument was used with a Biacore streptavidin coated sensor mounted into the system. The system buffer HBS-ET (10 mM HEPES pH 7.4, 150 mM NaCl, 1 mM EDTA, 0.05% Tween® 20) was used at a flow rate of 100 μl/min. The sample buffer was the system buffer. Biotinylated human soluble TWEAK (amino acids 99-249 of SEQ ID NO: 60) and biotinylated murine soluble TWEAK (amino acids 81-225 of SEQ ID NO: 61) was immobilized on different flow cells on the SA sensor at 150 RU each. The flow cell FC1 was used as a blank reference cell. Each antibody was injected into the system as an analyte at 100 nM at 100 μl/min for 2 min association time. The dissociation of the immune complexes were monitored for 5 min. The sensor surface was washed with HBS-ET for 10 seconds and regenerated using 2×2 minutes injections with 10 mM glycine pH 2.25. This procedure was done at 25° C. The kinetically rate limiting step of the complex dissociation phase in the interval [240 s-300 s] was taken to calculate the dissociation rate kd [1/s] (Biacore Evaluation Software 4.0). According to the equation t1/2 diss=ln(2)/(60×kd), the half-life of the immunocomplexes in minutes was calculated.

Binder | t/2 diss
B3 | 37 min

biological target: T3, Biotinylated human soluble TWEAK (amino …); assay: Biacore SPR, biotinylated human soluble TWEAK on SA sensor, antibody as analyte, 37 C

Binder | t/2 diss
B4 | 147 min
B5 | 115 min
B6 | 185 min
B7 | 45 min
B8 | 151 min
B9 | 50 min
B10 | 99 min
B11 | 195 min

biological target: T3, Biotinylated human soluble TWEAK (amino …); assay: Biacore SPR, biotinylated human soluble TWEAK on SA sensor, antibody as analyte, 25 C
Method: as §5

Binder | t/2 diss
B4 | 110 min
B5 | 87 min
B6 | 158 min
B7 | 50 min
B8 | 115 min
B9 | 67 min
B10 | 127 min
B11 | 146 min

biological target: T2, Biotinylated TWEAK; assay: Biacore cross-blocking on immobilised biotinylated TWEAK; binding of antibody 2 after saturation with competitor antibody 1 TW-305chi (row), 100 nM each
Method: as §2, §3, §4

Binder | MR % (Ab2/Ab1 molar ratio)
B3 | 1%

biological target: T4, Human recombinant soluble TWEAK; assay: cell-based or functional assay

Binder | IL-8 Secretion IC50
B1 | 99 ng/mL
B2 | 109 ng/mL
B3 | 122 ng/mL

biological target: T4, Human recombinant soluble TWEAK; assay: cell-based or functional assay; remark: another data set of the same source

Binder | IL8-Secretion
B4 | 197 ng/mL
B5 | 165 ng/mL
B6 | 24 ng/mL
B7 | 207 ng/mL
B8 | 94 ng/mL
B9 | 134 ng/mL
B10 | 26 ng/mL
B11 | 78 ng/mL

biological target: Biotinylated murine soluble TWEAK (amino acids 81-225 of SEQ ID NO: 61) (murine) (UniProt O54907); assay: Biacore SPR, biotinylated murine soluble TWEAK on SA sensor, antibody as analyte, 25 C

Binder | t/2 diss
B4 | 19 min
B5 | 19 min
B6 | 22 min
B7 | 17 min
B8 | 19 min
B9 | 17 min
B10 | 19 min
B11 | 22 min
